Reference: PMC3985513 (Biochemistry, 2014)
Where two headings read alike, the source gives them in different places.

B1: SwH-NOX (heme-nitric oxide/oxygen binding protein from Shewanella woodyi), wild type (natural protein, UniProt B1KIH6 1-182, looked up)
chain: MMGMVFTGLMELIEDEFGYETLDTLLESCELQSEGIYTSVGSYDHQELLQLVVKLSEVSSVPVTELVRLFGKKLFVELIEGHPEIANEMKDSFDLLSKIDSFIHVEVYKLYPQAELPKFTCDRLGDNDIRLHYQSKRPFASFAEGLLDGCAEYFKEDFTISRTPETQDSETDVIFNITRAPR
B2: SwHaCE (H-NOX-associated cyclic-di-GMP processing enzyme from Shewanella woodyi, diguanylate cyclase/phosphodiesterase) (enzyme, UniProt B1KIH5 1-637, looked up)
chain: MSALEDREQVFLRRIDREKRARQQAEQILNEKSKELWNTNQKLQQINEQLDQMVKTRTSELEIAKTNAELESLAHKNAKERFQLAMRATSAGVWERNIDEDAWYFSDRLIALFGYSREELLFGFKNLSFIHNEDKKPLLHVLKNHFRNGKAFDFECRVLTSEGRYKWFWIVGQAVWNDKGEVVRIAGSFSDIDERVENSKLVEKMAHYDHLTMVPNRVLYNQKLDIALSLADKEQSHLAVILIDLNDFKQVNDTLGHSAGDHLLQHIANQFKLNISESDIVARLGGDEFSIVLTNIANRQAVVTKCEQVLEIISRPFYYQKNLIIPKISMGIALYPEYGMTRDELMVNADLAMYKAKGEKHMGSGFQFCEQEHINKNMERTELSSELCEAITENEFFMHFQPIIDLSNGEVTFAEALIRWKHTNKGVLLPEKFISIAEDSGLITRLGKLSIELVAKQIDRMMAAKRLQKLTINISPSHFLSQSFMEDLKEILSVYPKMSSFITIEITEVVFLLNMEVAKKTVIELHDMGITISLDDFGTGYSSFKYLQQLPIDVIKLDCSFIAELDIDPSHRNIASTIIELAHSLEIKVIAEGVETNSQLVFLQDHHCDFAQGSYFFKPLSVIDFLHMQRCISLPAK

Legend:
[1] = molecular target: B2; test: other fluorescence titration
[2] = molecular target: B2; test: AUC
[3] = molecular target: B2; test: AUC; remark: listed apart in the source
AUC = molecular target: the molecule itself; test: AUC

Row | Binder | Kd [1] | stoichiometry N [2] | stoichiometry N [3] | stoichiometry N (AUC)
1 | B1 | 2500 to 3000 nM | 1 H-NOX per HaCE (2+2) | 1 H-NOX per HaCE (2+2) | –
2 | B2 | – | – | – | 2
